Data from patent US20020106675.

Biological target: F7 protein

B1: Pfu DNA polymerase (α-type DNA polymerase) (protein)
chain: MILDVDYITEEGKPVIRLFKKENGKFKIEHDRTFRPYIYALLRDDSKIEEVKKITGERHGKIVRIVDVEKVEKKFLGKPITVWKLYLEHPQDVPTIREKVREHPAVVDIFEYDIPFAKRYLIDKGLIPMEGEEELKILAFDIETLYHEGEEFGKGPIIMISYADENEAKVITWKNIDLPYVEVVSSEREMIKRFLRIIREKDPDIIVTYNGDSFDFPYLAKRAEKLGIKLTIGRDGSEPKMQRIGDMTAVEVKGRIHFDLYHVITRTINLPTYTLEAVYEAIFGKPKEKVYADEIAKAWESGENLERVAKYSMEDAKATYELGKEFLPMEIQLSRLVGQPLWDVSRSSTGNLVEWFLLRKAYERNEVAPNKPSEEEYQRRLRESYTGGFVKEPEKGLWENIVYLDFRALYPSIIITHNVSPDTLNLEGCKNYDIAPQVGHKFCKDIPGFIPSLLGHLLEERQKIKTKMKETQDPIEKILLDYRQKAIKLLANSFYGYYGYAKARWYCKECAESVTAWGRKYIELVWKELEEKFGFKVLYIDTDGLYATIPGGESEEIKKKALEFVKYINSKLPGLLELEYEGFYKRGFFVTKKRYAVIDEEGKVITRGLEIVRRDWSEIAKETQARVLETILKHGDVEEAVRIVKEVIQKLANYEIPPEKLAIYEQITRPLHEYKAIGPHVAVAKKLAAKGVKIKPGMVIGYIVLRGDGPISNRAILAEEYDPKKHKYDAEYYIENQVLPAVLRILEGFGYRKEDLRYQKTRQVGLTSWLNIKKS
ratio of the primer extension activity to the incorporation activity, about 320 kilodalton gel filtration fraction (Pfu DNA polymerase-F7 complex); about 76 kilodalton fraction (Pfu DNA polymerase alo): the ratio of 0.65 was obtained for the about 320 kilodalton fraction
